Laboratory results reported in patent US20100255011A1 (University of Washington, published 2010).

T1: CD46 on the surface of human cells (HeLa, Raji, PBMC and others) (human, UniProt P15529 35-376)
T1 sequence: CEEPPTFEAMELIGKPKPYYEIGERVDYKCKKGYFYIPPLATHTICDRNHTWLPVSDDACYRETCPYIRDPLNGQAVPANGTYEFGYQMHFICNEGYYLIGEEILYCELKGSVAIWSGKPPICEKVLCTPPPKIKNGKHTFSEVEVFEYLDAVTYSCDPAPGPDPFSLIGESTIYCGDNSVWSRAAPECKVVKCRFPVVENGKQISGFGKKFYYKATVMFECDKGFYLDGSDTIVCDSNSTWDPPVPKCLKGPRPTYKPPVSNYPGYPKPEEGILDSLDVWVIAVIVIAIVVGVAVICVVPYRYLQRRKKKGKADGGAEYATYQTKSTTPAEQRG

T2: soluble recombinant CD46 (sCD46) (human, UniProt P15529 35-343)
T2 construct: Soluble form produced as described in Wang et al. 2007; also called soluble CD46
T2 sequence: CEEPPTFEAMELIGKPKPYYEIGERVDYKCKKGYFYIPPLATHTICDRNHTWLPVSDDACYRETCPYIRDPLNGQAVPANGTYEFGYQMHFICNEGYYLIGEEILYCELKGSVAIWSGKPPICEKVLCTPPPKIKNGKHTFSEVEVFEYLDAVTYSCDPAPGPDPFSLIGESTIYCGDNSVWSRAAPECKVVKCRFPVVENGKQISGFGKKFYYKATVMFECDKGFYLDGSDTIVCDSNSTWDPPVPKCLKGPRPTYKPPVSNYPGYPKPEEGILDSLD


What was measured:
[1] = molecular target: CD46 on the surface of human cells (HeLa, Raji, PBMC and others) (human) (UniProt P15529); assay: cell-based or functional assay
[2] = molecular target: soluble recombinant CD46 (sCD46) (human) (UniProt P15529); assay: SPR, Biacore T100; biotinylated knob on streptavidin chip, sCD46 injected
[3] = molecular target: soluble recombinant CD46 (sCD46) (human) (UniProt P15529); assay: SPR, ratio of KDs
[4] = molecular target: T1, CD46 on the surface of human cells …; assay: cell-based or functional assay
[5] = molecular target: T2, soluble recombinant CD46 (sCD46); assay: SPR, Biacore T100; biotinylated knob on streptavidin chip, sCD46 injected
[6] = molecular target: T2, soluble recombinant CD46 (sCD46); assay: SPR, ratio of KDs

| Molecule | Kd [2] [nM] | koff [2] [s⁻¹] | kon [2] [M⁻¹ s⁻¹] | fold higher affinity than the wild-type fiber knob protein [3] [fold] | also measured |
| --- | --- | --- | --- | --- | --- |
| mouse anti-human CD46 antibody, clone MEM-258 (AbD Serotec) | – | – | – | – | level of CD46 on the surface of HeLa cells (flow cytometry), decline [1]: 30%; viability of Raji cells with NHS (alone or with daclizumab), decline [1]: 30% |
| Ad35 fiber knob mutant Asp207Gly + Thr245Ala + Ile256Leu | 0.92 | 0.0018 | 1.96e+06 | – | – |
| Ad35 fiber knob mutant Asp207Gly | 1.77 | 0.0034 | 3.51e+06 | 8.3 | – |
| Ad35 fiber knob mutant Ile256Leu | 11 | 0.0236 | 2.13e+06 | 1.3 | – |
| Ad35 fiber knob mutant Asn217Asp + Thr245Pro + Ile256Leu | 4.82 | 0.0097 | 2.25e+06 | – | – |
| Ad35 fiber knob mutant Thr245Ala | 7.64 | 0.0173 | 2.25e+06 | 1.9 | – |
| Ad35 fiber knob mutant Asp207Gly + Thr226Ala | 1.41 | 0.0026 | 1.97e+06 | – | – |
| wild-type Ad35 fiber knob protein (other, Recombinant, made in E. coli, homotrimer; Biotinylated (EZ-Link Sulfo-NHS-LC-Biotin) for SPR; also called Ad35K; wild-type Ad35K) HHHHHHGDICIKDSINTLWTGINPPPNCQIVENTNTNDGKLTLVLVKNGGLVNGYVSLVGVSDTVNQMFTQKTANIQLRLYFDSSGNLLTDESDLKIPLKNKSSTATSETVASSKAFMPSTTAYPFNTTTRDSENYIHGICYYMTSYDRSLFPLNISIMLNSRMISSNVAYAIQFEWNLNASESPESNIATLTTSPFFFSYITEDDN | – | – | – | – | killing of Raji cells by rituximab/NHS, increase against rituximab/NHS only [4]: ~2 fold; Kd [5]: 14.6 nM; koff [5]: 0.0234 s⁻¹; kon [5]: 1.52e+06 M⁻¹ s⁻¹ |
| mutant Ad35 fiber knob protein with Asp207Gly and Thr245Ala substitutions (Ad35K++) (other, Recombinant, E. coli, spontaneously forms trimers; Biotinylated for SPR; also called Asp207Gly + Thr245Ala; Ad35K++ polypeptide) HHHHHHGDICIKDSINTLWTGINPPPNCQIVENTNTNDGKLTLVLVKNGGLVNGYVSLVGVSDTVNQMFTQKTANIQLRLYFDSSGNLLTGESDLKIPLKNKSSTATSETVASSKAFMPSTTAYPFNTATRDSENYIHGICYYMTSYDRSLFPLNISIMLNSRMISSNVAYAIQFEWNLNASESPESNIATLTTSPFFFSYITEDDN | – | – | – | – | decrease of mean CD46 fluorescence intensity on PBMCs [4]: 1.97 fold; decrease of mean CD46 fluorescence intensity on Raji cells [4]: 7.54 fold; fold decrease in GFP expression after Ad35-GFP infection of HeLa cells pre-incubated 72 hours earlier, against Ad35K-279 [4]: 1000 fold; killing of Raji cells by rituximab/NHS, increase against rituximab/NHS only [4]: ~10 fold; fold higher affinity than the wild-type Ad35 [6]: 23.2 fold; Kd [5]: 0.63 nM; koff [5]: 0.0017 s⁻¹; kon [5]: 2.48e+06 M⁻¹ s⁻¹ |
